Square brackets hold non-standard residues; d marks the D form.
What follows are binders tested against T1, Human IL-13 with an Fc-tag (human, UniProt P35225 35-146, limits assumed) (assay: SPR, BIAcore 8K plus, human IL-13-Fc immobilized on CM5, positive control).
T1 construct: Immobilized on CM5 chip (about 5000 RU); also called Interleukin-13; not shown: Fc-tag
T1 sequence (P35225 35-146 limits assumed): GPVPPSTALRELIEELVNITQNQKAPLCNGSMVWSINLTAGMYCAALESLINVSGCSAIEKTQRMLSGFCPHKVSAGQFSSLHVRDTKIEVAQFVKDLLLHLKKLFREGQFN

Row | Kd | Binder
1 | 0.000309 µM | Tralokinumab (antibody, V domains shown) VH: QVQLVQSGAEVKKPGASVKVSCKASGYTFTNYGLSWVRQAPGQGLEWMGWISANNGDTNYGQEFQGRVTMTTDTSTSTAYMELRSLRSDDTAVYYCARDSSSSWARWFFDLWGRGTLVTVSS VL: SYVLTQPPSVSVAPGKTARITCGGNIIGSKLVHWYQQKPGQAPVLVIYDDGDRPSGIPERFSGSNSGNTATLTISRVEAGDEADYYCQVWDTGSDPVVFGGGTKLTVL

These binders were tested against T1, Human IL-13 with an Fc-tag (assay: SPR, BIAcore 8K plus, human IL-13-Fc immobilized on CM5, peptide as analyte, 25 C).

Row | Kd | Binder
2 | 55.4 µM | cyclo(YRE[dT][dV][dP]) (SMILES CC(C)[C@H]1NC(=O)[C@@H]([C@H](C)O)NC(=O)[C@H](CCC(=O)O)NC(=O)[C@H](CCCNC(=N)N)NC(=O)[C@H](Cc2ccc(O)cc2)NC(=O)[C@H]2CCCN2C1=O) [Compound 6]
3 | 16 µM | cyclo([dR][dF][dV]YEP) (SMILES CC(C)[C@H]1NC(=O)[C@@H](Cc2ccccc2)NC(=O)[C@@H](CCCNC(=N)N)NC(=O)[C@@H]2CCCN2C(=O)[C@H](CCC(=O)O)NC(=O)[C@H](Cc2ccc(O)cc2)NC1=O) [Compound 1]
4 | 85.1 µM | cyclo(TR[dF]P[dL][dP]) (SMILES CC(C)C[C@H]1NC(=O)[C@@H]2CCCN2C(=O)[C@@H](Cc2ccccc2)NC(=O)[C@H](CCCNC(=N)N)NC(=O)[C@H]([C@@H](C)O)NC(=O)[C@H]2CCCN2C1=O) [Compound 7]
5 | 368 µM | cyclo(RDYC[dP][dW][dP]) (SMILES N=C(N)NCCC[C@@H]1NC(=O)[C@H]2CCCN2C(=O)[C@@H](Cc2c[nH]c3ccccc23)NC(=O)[C@H]2CCCN2C(=O)[C@H](CS)NC(=O)[C@H](Cc2ccc(O)cc2)NC(=O)[C@H](CC(=O)O)NC1=O) [Compound 10]
6 | 22.8 µM | cyclo(E[dT][dV]W[dP][dP]) (SMILES CC(C)[C@H]1NC(=O)[C@@H]([C@H](C)O)NC(=O)[C@H](CCC(=O)O)NC(=O)[C@H]2CCCN2C(=O)[C@H]2CCCN2C(=O)[C@H](Cc2c[nH]c3ccccc23)NC1=O) [Compound 3]
7 | 337 µM | cyclo([dR]L[dW]W[dT]EP) (SMILES CC(C)C[C@@H]1NC(=O)[C@@H](CCCNC(=N)N)NC(=O)[C@@H]2CCCN2C(=O)[C@H](CCC(=O)O)NC(=O)[C@@H]([C@H](C)O)NC(=O)[C@H](Cc2c[nH]c3ccccc23)NC(=O)[C@@H](Cc2c[nH]c3ccccc23)NC1=O) [Compound 9]
8 | 26.2 µM | cyclo(RE[dV]W[dP][dP]) (SMILES CC(C)[C@H]1NC(=O)[C@H](CCC(=O)O)NC(=O)[C@H](CCCNC(=N)N)NC(=O)[C@H]2CCCN2C(=O)[C@H]2CCCN2C(=O)[C@H](Cc2c[nH]c3ccccc23)NC1=O) [Compound 4]
9 | 47.1 µM | cyclo(WVRE[dP][dP]) (SMILES CC(C)[C@@H]1NC(=O)[C@H](Cc2c[nH]c3ccccc23)NC(=O)[C@H]2CCCN2C(=O)[C@H]2CCCN2C(=O)[C@H](CCC(=O)O)NC(=O)[C@H](CCCNC(=N)N)NC1=O) [Compound 5]
10 | 99.5 µM | cyclo([dL]REPWMP) (SMILES CSCC[C@@H]1NC(=O)[C@H](Cc2c[nH]c3ccccc23)NC(=O)[C@@H]2CCCN2C(=O)[C@H](CCC(=O)O)NC(=O)[C@H](CCCNC(=N)N)NC(=O)[C@@H](CC(C)C)NC(=O)[C@@H]2CCCN2C1=O) [Compound 8]
11 | 17.4 µM | cyclo(RT[dV]E[dF][dP]) (SMILES CC(C)[C@H]1NC(=O)[C@H]([C@@H](C)O)NC(=O)[C@H](CCCNC(=N)N)NC(=O)[C@H]2CCCN2C(=O)[C@@H](Cc2ccccc2)NC(=O)[C@H](CCC(=O)O)NC1=O) [Compound 2]
12 | 622 µM | cyclo(VP[dL][dW][dV]LRP) (SMILES CC(C)C[C@@H]1NC(=O)[C@@H](C(C)C)NC(=O)[C@@H](Cc2c[nH]c3ccccc23)NC(=O)[C@@H](CC(C)C)NC(=O)[C@@H]2CCCN2C(=O)[C@H](C(C)C)NC(=O)[C@@H]2CCCN2C(=O)[C@H](CCCNC(=N)N)NC1=O) [Compound 11]
